Results from patent US20260029399A1.

Legend:
Assay in all cases: cell-based or functional assay
[1] = molecular target: T1, IL-13Rα1 receptor on Jurkat cells (UniProt P78552)
T1 sequence: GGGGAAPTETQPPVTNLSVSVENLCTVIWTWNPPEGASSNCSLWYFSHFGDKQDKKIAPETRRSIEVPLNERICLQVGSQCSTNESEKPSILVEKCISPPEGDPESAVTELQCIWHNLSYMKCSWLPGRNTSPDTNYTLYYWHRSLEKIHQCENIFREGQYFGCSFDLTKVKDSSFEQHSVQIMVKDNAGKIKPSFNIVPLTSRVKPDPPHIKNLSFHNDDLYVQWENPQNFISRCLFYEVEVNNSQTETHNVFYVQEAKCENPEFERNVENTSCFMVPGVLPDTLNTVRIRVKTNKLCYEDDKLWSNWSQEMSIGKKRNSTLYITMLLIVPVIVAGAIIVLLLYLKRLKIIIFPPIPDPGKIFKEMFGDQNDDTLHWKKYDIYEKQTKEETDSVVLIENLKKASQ

[2] = molecular target: 868 TCR (Beta Chain-P2A-Alpha Chain) on 868 TCR-expressing T cells
868 TCR (Beta Chain-P2A-Alpha Chain) on 868 TCR-expressing T cells, sequence (chain, as listed by the source): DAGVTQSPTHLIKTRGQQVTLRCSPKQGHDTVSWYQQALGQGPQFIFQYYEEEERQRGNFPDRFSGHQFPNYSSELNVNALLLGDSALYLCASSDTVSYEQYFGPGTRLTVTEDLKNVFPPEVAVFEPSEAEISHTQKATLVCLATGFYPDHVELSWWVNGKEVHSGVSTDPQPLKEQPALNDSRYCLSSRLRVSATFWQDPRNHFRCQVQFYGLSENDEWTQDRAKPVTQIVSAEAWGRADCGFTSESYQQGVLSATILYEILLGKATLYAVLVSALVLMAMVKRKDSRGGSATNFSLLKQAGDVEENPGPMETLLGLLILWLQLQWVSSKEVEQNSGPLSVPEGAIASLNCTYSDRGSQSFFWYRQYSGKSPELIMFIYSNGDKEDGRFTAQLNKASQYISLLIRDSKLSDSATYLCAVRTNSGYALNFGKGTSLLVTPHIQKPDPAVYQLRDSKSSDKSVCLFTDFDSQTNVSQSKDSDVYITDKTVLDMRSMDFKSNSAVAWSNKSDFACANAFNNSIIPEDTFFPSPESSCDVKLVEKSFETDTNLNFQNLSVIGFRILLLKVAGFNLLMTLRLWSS

[3] = molecular target: CMV C7 TCR on C7 TCR-expressing T cells
CMV C7 TCR on C7 TCR-expressing T cells, sequence (chain, as listed by the source): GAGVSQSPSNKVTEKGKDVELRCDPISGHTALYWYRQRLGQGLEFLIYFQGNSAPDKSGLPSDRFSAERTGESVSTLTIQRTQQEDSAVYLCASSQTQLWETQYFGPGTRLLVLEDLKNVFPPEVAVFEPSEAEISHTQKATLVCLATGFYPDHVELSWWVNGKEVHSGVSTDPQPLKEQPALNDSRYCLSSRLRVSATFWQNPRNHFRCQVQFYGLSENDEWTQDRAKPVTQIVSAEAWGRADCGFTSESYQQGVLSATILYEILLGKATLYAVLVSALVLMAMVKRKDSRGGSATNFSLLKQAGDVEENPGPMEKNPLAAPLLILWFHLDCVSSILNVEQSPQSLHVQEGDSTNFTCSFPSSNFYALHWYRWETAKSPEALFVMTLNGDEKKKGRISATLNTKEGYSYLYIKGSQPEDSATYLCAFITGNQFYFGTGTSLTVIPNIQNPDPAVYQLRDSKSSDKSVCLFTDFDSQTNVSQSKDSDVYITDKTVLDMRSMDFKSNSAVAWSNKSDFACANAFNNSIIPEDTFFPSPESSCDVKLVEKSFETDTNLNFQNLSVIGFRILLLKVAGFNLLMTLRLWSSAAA

[4] = molecular target: IG4 TCR (variant not stated) on IG4 TCR-expressing T cells

Q: For “IL-13 - CD8α stalk linker (SEQ ID NO: 4) - PDGFR transmembrane domain, displayed on lentivirus (from UniProt P35225 35-146) (ligand)”, which infection of Jurkat cells bearing the IL13Rα1 receptor (GFP reporter) [1] is on record?
A: 88.5%

Q: Which transduction rate [2] does the source give for “disulfide-stabilized SL9 pMHC displayed on lentivirus (peptide-MHC)” here?
A: 22.1%

Q: Which infection of Jurkat cells bearing the IL13Rα1 receptor (GFP reporter) [1] does the source give for “IL-13 - PDGFR linker (SEQ ID NO: 3) - PDGFR transmembrane domain, displayed on lentivirus (from UniProt P35225 35-146) (ligand)” here?
A: 6.1%

Q: With “disulfide-stabilized CMV NLV pMHC displayed on lentivirus (peptide-MHC)” as the substance, how does the transduction rate [3] read?
A: 21.8%

Q: “disulfide-stabilized NYESO-1 pMHC displayed on lentivirus (peptide-MHC)” was tested. Which transduction rate [4] did it give?
A: 19%

Q: For “IL-13 extracellular targeting domain: full-length IL-13 - IgG4 hinge linker - PDGFR transmembrane domain, displayed on lentivirus (from UniProt P35225 35-146) (ligand)”, which transduction (cells expressing the GFP reporter after mixing) [1] is on record?
A: 85.2%

Q: For “IL-13 - GAPGAS linker (SEQ ID NO: 5) - PDGFR transmembrane domain, displayed on lentivirus (from UniProt P35225 35-146) (ligand)”, which infection of Jurkat cells bearing the IL13Rα1 receptor (GFP reporter) [1] is on record?
A: 1%
